In article PMC3540977 (Peptides, 2012):

System: bovine brain microvessel endothelial cells (BBMECs)
Experiment: Metabolism of Dyn A 1–17 in the presence of BBMECs
Type: in vitro ADME
Conditions: incubation with bovine brain microvessel endothelial cells, LC-MS/MS

Dynorphin A 1–17 [Dyn A 1–17]
metabolite identified in the presence of BBMECs: Dyn A 1–6 is identified as a metabolite
